According to publication PMC5216932:

Target: Fas/CD95 (human (endogenous in U-2 OS)) (UniProt P25445)
UniProt P25445, sequence (P25445 26-335): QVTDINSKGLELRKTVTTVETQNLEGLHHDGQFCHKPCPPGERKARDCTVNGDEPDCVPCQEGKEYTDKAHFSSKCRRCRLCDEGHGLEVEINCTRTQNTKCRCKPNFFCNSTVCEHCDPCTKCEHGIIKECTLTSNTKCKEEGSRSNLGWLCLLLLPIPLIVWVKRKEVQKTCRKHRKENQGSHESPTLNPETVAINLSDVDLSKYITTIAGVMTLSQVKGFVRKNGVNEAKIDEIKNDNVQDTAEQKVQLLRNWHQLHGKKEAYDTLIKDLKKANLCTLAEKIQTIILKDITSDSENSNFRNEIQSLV

Fas ligand (from UniProt P48023 1-281)
U-2 OS cell death with no granzyme-B FRET signal change in co-culture with primary NK cells (3-day cultured in IL-2), with 1.5 μg/ml anti-Fas neutralizing antibody (clone ZB4); control about 65%: 28%
